# Measurements from patent US20090041755A1, “Methods and Compositions For PDGF-D Activation and Inhibition” (Ludwig Institute For Cancer Research, priority 2005, published 2009).
# Tests used:
# latent PDGF-CC = latent PDGF-CC (Homo sapiens, UniProt Q9NRA1); conditions: cited from earlier work
# [1] = target: chimeric PDGF-D/PDGF-C molecule with CUB domain from PDGF-D and growth factor domain from PDGF-C (UniProt Q9GZP0)
# [2] = target: chimeric PDGF-C/PDGF-D molecule with CUB domain from PDGF-C and growth factor domain from PDGF-D (UniProt Q9NRA1)
# chimeric PDGF-C/PDGF-D molecule with CUB domain from PDGF-C and growth factor domain from PDGF-D, sequence (Q9NRA1 whole entry, looked up, change not shown, the tested form may be a part): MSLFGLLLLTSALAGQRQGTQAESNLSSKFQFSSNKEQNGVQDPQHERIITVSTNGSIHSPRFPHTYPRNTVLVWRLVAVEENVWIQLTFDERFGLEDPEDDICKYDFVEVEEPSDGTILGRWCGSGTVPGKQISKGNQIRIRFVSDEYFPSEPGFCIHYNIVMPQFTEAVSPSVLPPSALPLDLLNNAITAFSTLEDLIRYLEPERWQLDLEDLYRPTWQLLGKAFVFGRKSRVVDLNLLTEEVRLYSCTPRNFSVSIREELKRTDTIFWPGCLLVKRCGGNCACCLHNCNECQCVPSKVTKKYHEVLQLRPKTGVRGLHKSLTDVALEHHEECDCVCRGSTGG
# latent PDGF-CC, sequence (Q9NRA1 23-345): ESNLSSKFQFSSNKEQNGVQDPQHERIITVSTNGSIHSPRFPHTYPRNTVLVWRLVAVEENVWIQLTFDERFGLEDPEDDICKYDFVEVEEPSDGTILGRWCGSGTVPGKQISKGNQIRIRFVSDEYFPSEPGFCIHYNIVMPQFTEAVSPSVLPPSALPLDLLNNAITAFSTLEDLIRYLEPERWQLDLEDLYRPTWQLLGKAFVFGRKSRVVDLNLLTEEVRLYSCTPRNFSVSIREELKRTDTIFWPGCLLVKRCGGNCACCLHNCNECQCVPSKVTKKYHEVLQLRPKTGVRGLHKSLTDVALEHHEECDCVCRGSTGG
# chimeric PDGF-D/PDGF-C molecule with CUB domain from PDGF-D and growth factor domain from PDGF-C, sequence (Q9GZP0 other isoform, or with tags, fused parts or gaps mutant): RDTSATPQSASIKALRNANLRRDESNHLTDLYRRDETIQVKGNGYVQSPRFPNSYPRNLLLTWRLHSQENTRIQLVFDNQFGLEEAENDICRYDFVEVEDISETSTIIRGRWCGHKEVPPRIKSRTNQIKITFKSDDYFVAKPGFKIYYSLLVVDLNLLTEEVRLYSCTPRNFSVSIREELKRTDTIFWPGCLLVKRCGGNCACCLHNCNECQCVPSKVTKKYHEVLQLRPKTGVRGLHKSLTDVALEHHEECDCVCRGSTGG
substance,measurement,setting,value
"tPA: tissue plasminogen activator, specific activator of PDGF-CC",activation of latent PDGF-CC,latent PDGF-CC; Fredriksson et al. 2004,activates latent PDGF-CC
same,substrate specificity of the protease,latent PDGF-CC; PDGF-CC versus PDGF-DD,specific for PDGF-CC
urokinase plasminogen activator (uPA),"proteolytic release of the growth factor domain (co-transfection, SDS-PAGE and immunoblot)",[1],Analysis of all the PDGF-D/PDGF-C chimeric molecules revealed that no released growth factor domain could be visualized using specific antibodies
same,"proteolytic release of the growth factor domain (co-transfection, SDS-PAGE and immunoblot)",[2],Analysis of all the PDGF-D/PDGF-C chimeric molecules revealed that no released growth factor domain could be visualized using specific antibodies
